Laboratory results from patent publication US20220135655A1 (Dana-Farber, published 2022).

B1: 2B6 (scFv)
scFv: QVQLVQSGAEVKKPGSSVKVSCKASGGPFSSYAISWVRQAPGQGLEWMGGISPIFGTANYAQKFQGRVTITADKSTNTAYMELSSLRSEDTAVYYCARGRSYIVSVSPGFDVWGQGTLVTVSSGGGSGGGSGGGSGGGSQSVLTQPPSASGSPGQSVTISCTGTSSDVGGYNYVSWYQQYPGKAPKLMIYEVSKRPSGVPDRFSGSKSGTSASLAISELQSEDEADYYCASWDDSLNAYVFGSGTKVTVL
B2: 2E11 (scFv)
scFv: QVQLVQSGAEVKKPGSSVKVSCKASGGTFSSYAISWVRQAPGQGLEWMGGINPIFGTANYAQKFQGRVTITADESTNTAYMELSSLRSEDTAVYYCARGESAYYSRNYDVWGQGTLVTVSSGGGSGGGSGGGSGGGSSYELTQPPSVSKGLRQTATLTCTGNSSNVGNQGASWLQQHQGHPPKLLSYRNDNRPSGISERFSASRSGNTASLTITGLQPEDEADYYCSAWDNSLSAWVFGGGTKLTVL
B3: 1F12 (scFv)
scFv: QVQLVQSGAEVKKPGSSVKVSCKASGGIFSSYAISWVRQAPGQGLEWMGGITPIFGTANYAQKFQGRVTITADESTRTAYMELSSLRSEDTAVYYCARDLSRDSLNLPGSSPGYDLWGQGTLVTVSSGGGSGGGSGGGSGGGSETTLTQSPGTLSLSPGERATLSCRASQSVSSNLAWYQQKPGQAPRLLIYGASTRATGIPARFSGSGSGTEFTLTISSLQSEDFAVYYCQQYSSSPYTFGQGTKLEIK
B4: 4C4 (scFv)
scFv: QVQLVQSGAEVKKPGSSVKVSCKASGGTFSSYAISWVRQAPGQGLEWMGGISPMFGTANYAQKFQGRVTITADKSTSTAYMELSSLRSEDTAVYYCAREGGYSPGGVDFDYWGQGTLVTVSSGGGSGGGSGGGSGGGSNFMLTQPHSVSESPGKTVTISCTRSSGSIASTYVQWYRQRPGSAPTTVIYEDHQRPSGVPDRFSGSLDSSSNSASLTISGLRTEDAATYYCQSFDASTLVFGGGTKLTVL
B5: 1H2 (scFv)
scFv: QVQLVQSGAEVKKPGSSVKVSCKASGGPFRSYAISWVRQAPGQGLEWMGGIIPIFGTANYAQKFQGRVTITADESTSTAYMELSSLRSEDTAVYYCARGGVYSFDVWGQGTLVTVSSGGGSGGGSGGGSGGGSQSGLTQPPSASGTPGQRVTISCSGSGSNVGSNVVNWYQHLPGTAPKLLIYRNNQRPSGVPDRFSGSKSGTSASLAISGLQSEDEADYYCAAWDDRLNGFVFGTGTKVTVL
B6: 2G3 (scFv)
scFv: QVQLVQSGAEVKKPGSSVKVSCKASGGTFRSYAISWVRQAPGQGLEWMGGIMPIFGTANYAQKFQGRVTITADESTTTVYMELSSLRSEDTAVYYCARGAGVSAGPSWPFDVWGQGTLVTVSSGGGSGGGSGGGSGGGSQPGLTQPPSVSKDLRQTATLTCTGNSNNVGKQGATWLQQHQGHPPKLLSYRNNNRPSGISERFSASRSGDTASLTITGLQPEDEADYYCSAWDSSLSVWVFGGGTKLTVL
B7: 1F1 (scFv)
scFv: QVQLVQSGAEVKKPGSSVKVSCKASGGTFSSYAISWVRQAPGQGLEWMGGISAIFGTANYAQKFQGRVTITADESTRTAYMELSSLRSEDTAVYYCARGSGYYVAASGAFDVWGQGTLVTVSSGGGSGGGSGGGSGGGSQPGLTQPPSVSKGLRQTATLTCTGNINNVGDQGAGWLQQHQGRPPKLLSYRNSNRPSGVSERFSASRSGNTASLTITGLQPEDEADYYCSAWDSSLSDWVFGGGTKLTVL
B8: 2H4 (anti-H1CA0409) (scFv)
scFv: QVQLVQSGAEVKKPGSSVKVSCKASGVTFSSYAISWVRQAPGQGLEWMGGITPIFGTANYAQKFQGRVTITADQSTSTAYMELSSLRSEDTAVYYCARGGGVFDVWGQGTLVTVSSGGGSGGGSGGGSGGGSSYELTQPPSVSGAPRQRVTISCSGSSSNIGNNAVNWYQQLPGKAPKLLIYYDDMLPSGVSDRFSGSKSGSSASLAISGLQSEDEADYYCAAWDDSLSGPVFGGGTNLTVL
B9: 2E12 (scFv)
scFv: QVQLVQSGAEVKKPGSSVKVSCKASGVTFSSYAISWVRQAPGQGLEWMGGISPMFGTANYAQKFQGRVTITADESTNTAYMELSSLRSEDTAVYYCARGGGYYPAGVGRYDVWGQGTLVTVSSGGGSGGGSGGGSGGGSDIVMTQSPDSLAVSLGERATINCKSSQNVLYSSNNKNNLAWYQQRPGQPPKVLLYWASTRASGVPDRFSGSGSGTDFTLTINSLQAEDVALYYCQQYYGKPFTFGPGTKVEIK
B10: 1F6 (scFv)
scFv: QVQLVQSGAEVKKPGSSVKVSCKASGGTFSSYAISWVRQAPGQGLEWMGGIITIFGTANYAQKFQGRVTITADESTNTAYMELSSLRSEDTAVYYCARGGGGRFDVWGQGTLVTVSSGGGSGGGSGGGSGGGSSYELTQPPSVSGTPGQRVTISCSGSTSNIGNNALNWYQKLPGTAPKLLIYSLNQRPSGVPDRFSGSKSGTSASLAISGLQSEDEADYYCEAWDDSLSGPVFGGGTKVTVL
B11: 2A1 (scFv)
scFv: QVQLVQSGAEVKKPGSSVKVSCKASGVIFSSYAISWVRQAPGQGLEWMGGIIPIFGTANYAQKFQGRVTITADKSTSTAYMELSSLRSEDTAVYYCARGGSGSFDVWGQGTLVTVSSGGGSGGGSGGGSGGGSQPGLTQPPSASGTPGQRVTISCSGSSSNLGSNYVFWYQHLPGAAPKLLIYRNSQRPSGVPDRFSGSKSGTSASLAISGLQSEDEADYYCAAWDDSLNGVVFGGGTKLTVL
B12: 2F1 (scFv)
scFv: QVQLVQSGAEVKKPGSSVKVSCKASGGTFSSYAISWVRQAPGQGLEWMGGITPLFGTANYAQKFQGRVTITADDSTSTAYMELSSLRSEDTAVYYCARGPTLYSPPVFDVWGQGTLVTVSSGGGSGGGSGGGSGGGSQTVVTQEPSFSVSPGGTITLTCGLSSGSVSTTNYPSWYQQTPGRTPRTLIYNTNTRSSGVPDRFSGSILGNKAALTITGAQAGDESDYYCVLYMGRGIYVFGSGTKVSVL
B13: 1F5 (scFv)
scFv: QVQLVQSGAEVKKPGSSVKVSCKASGGTFSSYAISWVRQAPGQGLEWMGGISPIFGTANYAQKFQGRVTITSDESTSTAYMELSSLRSEDTAVYYCARDQGGTRGNYFDVWGQGTLVTVSSGGGSGGGSGGGSGGGSQPVLTQPPSVSKGLRQTATVTCTGNSNNVGNQGAAWLQQHQGHPPKLLSYRNNNRPSGISERLSASRSGNTASLTIAGLQPEDEADYYCSAWDNTVSGWVFGGGTRVTVL
B14: 2H3 (scFv)
scFv: QVQLVQSGAEVKKPGSSVKVSCKASGGPFSSYAISWVRQAPGQGLEWMGGIIPIFGTANYAQKFQGRVTITADESTSTAYMELSSLRSEDTAVYYCARGTDYSGYRGFDVWGQGTLVTVSSGGGSGGGSGGGSGGGSQTVVTQEPSFSVSPGGTVTLTCALSSGSVSSFNYASWYQQTPGQAPRTLISNTNTRSSGVPDRFSGSILGNKATLTITGAQADDESHYYCALYVGGGISVFGGGTKLTVL
B15: 2C1 (scFv)
scFv: QVQLVQSGAEVKKPGSSVKVSCKASGGIFSSYAISWVRQAPGQGLEWMGGISAIFGTANYAQKFQGRVTITADESTSTAYMELSSLRSEDTAVYYCARDSGIASGYTAYMDYWGQGTLVTVSSGGGSGGGSGGGSGGGSSSELTQDPAVSVALGQTVRITCQGDSLRTSYASWYQQKPGQSPVLVIYQSTKRPSGIPERFSASSSGNTASLTITGAQAEDEADYYCNSRGSGGNPYVFGTGTKVTVL
B16: 4F5 (scFv)
scFv: QVQLVQSGAEVKKPGSSVKVSCKASGVTFRSYAISWVRQAPGQGLEWMGGISGIFGTANYAQKFQGRVTITADESTSTAYMELSSLRSEDTAVYYCARSPAYYFGPNMDVWGQGTLVTVSSGGGSGGGSGGGSGGGSQSVLTQPPSVSGAPGQRVTISCTGSSSNIGAGYDVHWYQQLPGTVPKLIIYDNSNRPSGVPARFSGSKSGTSASLAISGLQSEDEAAYYCQSYDSSLSVVVFGGGTKLSVL
B17: 2A11 (scFv)
scFv: QVQLVQSGAEVKKPGSSVKVSCKASGVTFSSYAISWVRQAPGQGLEWMGGISPVFGTANYAQKFQGRVTITADDSTNTAYMELSSLRSEDTAVYYCARSRGYTVSSLAGRYFDQWGQGTLVTVSSGGGSGGGSGGGSGGGSETTLTQSPGTLSLSPGERASLSCKASESLCSTCLAWYQQKPGQAPRLIVYGATSRATGIPDRFSGSGSGTDFTLTISRLEPEDFAVYYCQQYGSSPQTFGQGTKVEIK
B18: 1E6 (scFv)
scFv: QVQLVQSGAEVKKPGSSVKVSCKASGVTFSSYAISWVRQAPGQGLEWMGGISPIFGTANYAQKFQGRVTITADESTSTAYMELSSLRSEDTAVYYCARGREYYASNGDSFDVWGQGTLVTVSSGGGSGGGSGGGSGGGSQPVLTQPPSVSVAPGKTASISCEGNNIATKSVHWYQQKSGHAPVVVVYHDSDRPSGVPDRFSGSKSGTSASLAISGLRSEDEADYYCAAWDDSLSGPWVFGGGTKLTVL
B19: 1F3 (scFv)
scFv: QVQLVQSGAEVKKPGSSVKVSCKASGVIFSSYAISWVRQAPGQGLEWMGGISPIFGTANYAQKFQGRVTITADESTSTAYMELSSLRSEDTAVYYCARSRGYAPGTSFHYDVWGQGTLVTVSSGGGSGGGSGGGSGGGSLPVLTQAPSMSVAPGKTASITCGGDNIGSKSVHWYQQKPGQAPVLVMYYDSDRPSGIPERFSGSNSGNTATLTISRVEAGDEADYFCQLWDHTNSHVVFGGRTKLTVL
B20: 1H4 (scFv)
scFv: QVQLVQSGAEVKKPGSSVKVSCKASGVPFSSYAISWVRQAPGQGLEWMGGISPLFGTANYAQKFQGRVTITADQSTSTVYMELSSLRSEDTAVYYCARGLGTYSPSLYPRGMDVWGQGTLVTVSSGGGSGGGSGGGSGGGSLPVLTQPPSASGTPGQSVTISCSGSSSNIGRNDVNWYQQFPGRAPKLLIYGRDERPFGVPARFSGSKSGTSASLAISGLQSEDEADYYCAAWDASLMIYVFGTGTTVTVL

Molecular target: A/California/04/2009 (H1CA0409) recombinant HA (influenza A virus A/California/04/2009, UniProt P26140 18-529)
Assay: phage display panning (immunotube) against trimeric HA

Row | Binder | binding result
1 | B1 | binds
2 | B2 | binds
3 | B3 | binds
4 | B4 | binds
5 | B5 | binds
6 | B6 | binds
7 | B7 | binds
8 | B8 | binds
9 | B9 | binds
10 | B10 | binds
11 | B11 | binds
12 | B12 | binds
13 | B13 | binds
14 | B14 | binds
15 | B15 | binds
16 | B16 | binds
17 | B17 | binds
18 | B18 | binds
19 | B19 | binds
20 | B20 | binds
